Test results from US12098378B2, “Anti-fungal polypeptides” (priority 2020, dated 2024).

Assays:
Podosphaera xanthii = test: Control of powdery mildew on cucumber in greenhouse; assay type: in vivo
Procedure: Four replicates of 10 plants per plot of cucumber plants (4 m^2 per plot) were treated with a spray volume between 1000 and 18751/ha depending on the crop height. The spray mix contained a concentration of active ingredient as described in Table 8. Eight applications were performed spaced 7 days apart. No artificial infection was performed and first spray was placed at the onset of flowering. The efficacy of 10G11 was compared to that of a non-treated control, a chemical reference Topaz (Penconazole), a biological reference Sonata (Bacillus pumilis strain QST 2808) in combination with the adjuvant Elasto G5 and a chemical rotation of Takumi (Cyflufenamid), Flint (Trifloxystrobin) and Topaz.
Efficacy assessments were performed on 40 leaves per plot, assessing the percentage of leaf area affected (PESSEV). Assessments were performed on a weekly basis and continued until two weeks after the last application.

Phakopsora pachyrhizi = test: Control of soybean rust on soybeans in glasshouse; assay type: in vivo
Procedure: Four replicates of pot-grown soybean plants (4 plants/pot) were sprayed with 125 ml aqueous suspension, containing a concentration of active ingredient of as described in Table 1. Two applications were done spaced 14 days apart. Plants were inoculated once with Phakopsora pachyrhizi two days after the first application (application A) of active ingredient. The growth inhibitory characteristics of 10G11Q were compared to those of a non-antifungal reference VHH molecule, a non-treated control and the systemic chemical Quadris Top SBX (azoxystrobin, difeconazole).
Disease severity is recorded as percent severity on a scale of 0-100%. Recording started when first symptoms appear followed by weekly assessment at least till 3 weeks after the second application (application B) of the active ingredient. Percent severity ratings are separated based on the position on the plant: Percent severity low canopy, Percent severity mid canopy and Percent severity upper canopy to track the progress of the disease well and following the natural development of the disease in nature.
Time indications in the graphs on the x-axis concern the time of recording of disease severity or incidence. These are relative and are indicated by the number of days after application when recording occurred. For example, a recording 13 Days After the second application (application B) will be represented as 13DAB. This code is applicable for FIG. 15 to FIG. 28.

Botrytis cinerea spores = test: Microscopic time-lapse imaging of spores (mode of action); assay type: cell-based; settings: IncuCyte time-lapse imaging (FIG. 14)
Text: The action of 10G11 disrupting liposomes (Example 12), further underscores lysing of spores can be attributed to the action of 10G11.

B1: 10G11: VHH polypeptide, SEQ ID NO: 2, begins with a D residue (protein)
VHH: DVQLVESGGGLVQAGGSLRLSCAASRSIFSINAMDWYRQAPGKQREWVAGITRGGTTKYADSVKGRFTISRDNAKKKVYLQMNSLKPEDTAVYYCNVLRGEQPWTRDYWGQGTQVTVSS
severity (PESSEV) of powdery mildew on cucumber (Podosphaera xanthii; 125, 250, 500 g ai/ha LWA, until 1 week after the seventh application (FIG. 28)): clear and dose-related performance | severity (PESSEV) of powdery mildew on cucumber (Podosphaera xanthii; from the eighth application, very severe disease pressure (FIG. 28)): Performance decreased | percent severity of Asian soybean rust, lower canopy (Phakopsora pachyrhizi; 250, 500, 750 g ai/ha, 2 applications, until 3 weeks after the second application, vs reference VHH and non-treated inoculated control (FIG. 15)): prominent and dose-related growth inhibition pattern | percent severity of Asian soybean rust, mid canopy (Phakopsora pachyrhizi; 250, 500, 750 g ai/ha, 2 applications, until 3 weeks after the second application, vs reference VHH and non-treated inoculated control (FIG. 16)): prominent and dose-related growth inhibition pattern | percent severity of Asian soybean rust, upper canopy (Phakopsora pachyrhizi; 250, 500, 750 g ai/ha, 2 applications, until 3 weeks after the second application, vs reference VHH and non-treated inoculated control (FIG. 17)): prominent and dose-related growth inhibition pattern | activity compared with chemical reference Quadris Top SBX (Phakopsora pachyrhizi; 750 g ai/ha): on par | spore lysis (loss of structural integrity) (Botrytis cinerea spores): substantial portion of spores are also lysed | spore outgrowth (Botrytis cinerea spores): inhibited in commencing spore outgrowth
